# Laboratory results from patent US20250388672A1 (Ablynx, published 2025).
# T1: human CD20 (human, UniProt P11836 1-297)
# T1 sequence (looked up): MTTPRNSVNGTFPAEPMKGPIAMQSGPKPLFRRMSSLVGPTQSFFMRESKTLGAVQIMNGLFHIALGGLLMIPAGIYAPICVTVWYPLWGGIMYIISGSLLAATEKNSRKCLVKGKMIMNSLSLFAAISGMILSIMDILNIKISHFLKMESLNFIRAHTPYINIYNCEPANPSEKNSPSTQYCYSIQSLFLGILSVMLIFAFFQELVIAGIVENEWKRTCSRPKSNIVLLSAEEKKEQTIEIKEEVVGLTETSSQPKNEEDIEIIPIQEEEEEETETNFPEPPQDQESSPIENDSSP
# B1: T017000040 (bispecific antibody)
# chain: EVQLVESGGGLVQPGGSLRLSCAASGDIYKSFDMGWYRQAPGKQRDLVAVIGSRGNNRGRTNYADSVKGRFTISRDGTGNTVYLLMNKLRPEDTAIYYCNTAPLVAGRPWGRGTLVTVSSGGGGSGGGGSGGGGSGGGGSGGGGSGGGGSGGGGSEVQLVESGGGLVQPGGSLRLSCTFSGGTFSSYTMGWFRQAPGKEREFVAEVRWGGVTTYSNSLKDRFSISEDSVKNAVYLQMNSLKPEDTAVYYCAAVRQMYMTVVPDYWGQGTLVTVSSGAADYKDHDGDYKDHDIDYKDDDDKGAAHHHHHH
# notes: Bispecific Nanobody construct with tags, expressed in Pichia; also called T0170060E11-35GS-20CD019C07-FLAG3-HIS6; CD3xCD20 (cluster B)
# B2: T017000061 (bispecific antibody)
# chain: EVQLVESGGGLVQPGGSLRLSCTFSGGTFSSYTMGWFRQAPGKEREFVAEVRWGGVTTYSNSLKDRFSISEDSVKNAVYLQMNSLKPEDTAVYYCAAVRQMYMTVVPDYWGQGTLVTVSSGGGGSGGGGSGGGGSGGGGSGGGGSGGGGSGGGGSEVQLVESGGGLVQGGGSLSLSCAASGRTFSSYAMAWFRQPPGKEREFVASISWSGENTNYRNSVKGRFTISRDNAKNTVYLQMNSLKPEDTAVYYCAAKIAKTYPDNWYWTKSNNYNYWGQGTLVTVSSGAADYKDHDGDYKDHDIDYKDDDDKGAAHHHHHH
# B3: T017000057 (bispecific antibody)
# chain: EVQLVESGGGLVQPGGSLRLSCTFSGGTFSSYTMGWFRQAPGKEREFVAEVRWGGVTTYSNSLKDRFSISEDSVKNAVYLQMNSLKPEDTAVYYCAAVRQMYMTVVPDYWGQGTLVTVSSGGGGSGGGGSGGGGSGGGGSGGGGSGGGGSGGGGSEVQLVESGGGLVQAGGSLRLSCAASGRSFNMNPLGWFRQSPGKEREFVAAHRWSDGNTYYVDSVKGRFTISRDNAKNTVYLQMNSLKSEDTAVYYCAAGRPWSAFRSPGEYVYWGQGTLVTVSSGAADYKDHDGDYKDHDIDYKDDDDKGAAHHHHHH
# B4: T017000100 (bispecific antibody)
# chain: EVQLVESGGGPVQAGGSLRLSCAASGRTYRGYSMGWFRQAPGKEREFVAAIVWSGGNTYYEDSVKGRFTISRDNAKNTMYLQMTSLKPEDSATYYCAAKIRPYIFKIAGQYDYWGQGTLVTVSSGGGGSGGGGSGGGGSGGGGSGGGGSGGGGSGGGGSEVQLVESGGGLVQAGGSLRLSCAASGITFSINTMGWYRQAPGKQRELVALISSIGDTYYADSVKGRFTISRDNAKNTVYLQMNSLKPEDTAVYYCKRFRTAAQGTDYWGQGTLVTVSSGAADYKDHDGDYKDHDIDYKDDDDKGAAHHHHHH
# B5: T017000036 (bispecific antibody)
# chain: EVQLVESGGGPVQAGGSLRLSCAASGRTYRGYSMGWFRQAPGKEREFVAAIVWSGGNTYYEDSVKGRFTISRDNAKNTMYLQMTSLKPEDSATYYCAAKIRPYIFKIAGQYDYWGQGTLVTVSSGGGGSGGGGSGGGGSGGGGSGGGGSGGGGSGGGGSEVQLVESGGGLVQPGGSLRLSCTFSGGTFSSYTMGWFRQAPGKEREFVAEVRWGGVTTYSNSLKDRFSISEDSVKNAVYLQMNSLKPEDTAVYYCAAVRQMYMTVVPDYWGQGTLVTVSSGAADYKDHDGDYKDHDIDYKDDDDKGAAHHHHHH
# notes: Bispecific Nanobody construct with tags, expressed in Pichia; also called T0170117G03-35GS-20CD019C07-FLAG3-HIS6; CD3xCD20 (cluster A)
# B6: T017000101 (bispecific antibody)
# chain: EVQLVESGGGLVQAGGSLRLSCAASGITFSINTMGWYRQAPGKQRELVALISSIGDTYYADSVKGRFTISRDNAKNTVYLQMNSLKPEDTAVYYCKRFRTAAQGTDYWGQGTLVTVSSGGGGSGGGGSGGGGSGGGGSGGGGSGGGGSGGGGSEVQLVESGGGPVQAGGSLRLSCAASGRTYRGYSMGWFRQAPGKEREFVAAIVWSGGNTYYEDSVKGRFTISRDNAKNTMYLQMTSLKPEDSATYYCAAKIRPYIFKIAGQYDYWGQGTLVTVSSGAADYKDHDGDYKDHDIDYKDDDDKGAAHHHHHH
# B7: T017000045 (bispecific antibody)
# chain: EVQLVESGGGSVQAGGSLRLSCAASGRTFSTNPMGWFRQVPGKERELIAAVRWADGNTFYADSVKGRFTISRDNAKKTVYLQMNSLKSEDTATYYCAAGRPWSAYHSPAEYVHWGQGTLVTVSSGGGGSGGGGSGGGGSGGGGSGGGGSGGGGSGGGGSEVQLVESGGGLVQPGGSLRLSCTFSGGTFSSYTMGWFRQAPGKEREFVAEVRWGGVTTYSNSLKDRFSISEDSVKNAVYLQMNSLKPEDTAVYYCAAVRQMYMTVVPDYWGQGTLVTVSSGAADYKDHDGDYKDHDIDYKDDDDKGAAHHHHHH
# B8: T017000021 (bispecific antibody)
# chain: B7 chain
# notes: Bispecific Nanobody construct with tags, expressed in Pichia; also called T0170033G03-35GS-20CD019C07-FLAG3-HIS6; CD3xCD20 (cluster C)
# B9: T017000016 (bispecific antibody)
# chain: EVQLVESGGGLVQPGGSLRLSCTFSGGTFSSYTMGWFRQAPGKEREFVAEVRWGGVTTYSNSLKDRFSISEDSVKNAVYLQMNSLKPEDTAVYYCAAVRQMYMTVVPDYWGQGTLVTVSSGGGGSGGGGSGGGGSGGGGSGGGGSGGGGSGGGGSEVQLVESGGGSVQAGGSLRLSCAASGRTFSTNPMGWFRQVPGKERELIAAVRWADGNTFYADSVKGRFTISRDNAKKTVYLQMNSLKSEDTATYYCAAGRPWSAYHSPAEYVHWGQGTLVTVSSGAADYKDHDGDYKDHDIDYKDDDDKGAAHHHHHH
# notes: Bispecific Nanobody construct with tags, expressed in Pichia; also called 20CD019C07-35GS-T0170033G03-FLAG3-HIS6; CD20xCD3 (cluster C)
# B10: T017000056 (bispecific antibody)
# chain: EVQLVESGGGLVQPGGSLRLSCTFSGGTFSSYTMGWFRQAPGKEREFVAEVRWGGVTTYSNSLKDRFSISEDSVKNAVYLQMNSLKPEDTAVYYCAAVRQMYMTVVPDYWGQGTLVTVSSGGGGSGGGGSGGGGSGGGGSGGGGSGGGGSGGGGSEVQLVESGGGAVQPGGSLRLSCAASGIRISRNMMGWFRQAPGKQRDLVARITPGGDTYYVDSVKGRFSISKDNAKNTVYLQMNSLKPEDTAVYYCNSYSTLGSWGQGTLVTVSSGAADYKDHDGDYKDHDIDYKDDDDKGAAHHHHHH
# B11: T017000053 (bispecific antibody)
# chain: EVQLVESGGGLVQPGGSLRLSCTFSGGTFSSYTMGWFRQAPGKEREFVAEVRWGGVTTYSNSLKDRFSISEDSVKNAVYLQMNSLKPEDTAVYYCAAVRQMYMTVVPDYWGQGTLVTVSSGGGGSGGGGSGGGGSGGGGSGGGGSGGGGSGGGGSEVQLVESGGGLVQPGGSLRLSCAASGDIYKSFDMGWYRQAPGKQRDLVAVIGSRGNNRGRTNYADSVKGRFTISRDGTGNTVYLLMNKLRPEDTAIYYCNTAPLVAGRPWGRGTLVTVSSGAADYKDHDGDYKDHDIDYKDDDDKGAAHHHHHH
# notes: Bispecific Nanobody construct with tags, expressed in Pichia; also called 20CD019C07-35GS-T0170060E11-FLAG3-HIS6; CD20xCD3 (cluster B)
# B12: T017000062 (bispecific antibody)
# chain: EVQLVESGGGLVQPGGSLRLSCTFSGGTFSSYTMGWFRQAPGKEREFVAEVRWGGVTTYSNSLKDRFSISEDSVKNAVYLQMNSLKPEDTAVYYCAAVRQMYMTVVPDYWGQGTLVTVSSGGGGSGGGGSGGGGSGGGGSGGGGSGGGGSGGGGSEVQLVESGGGPVQAGGSLRLSCAASGRTYRGYSMGWFRQAPGKEREFVAAIVWSGGNTYYEDSVKGRFTISRDNAKNTMYLQMTSLKPEDSATYYCAAKIRPYIFKIAGQYDYWGQGTLVTVSSGAADYKDHDGDYKDHDIDYKDDDDKGAAHHHHHH
# notes: Bispecific Nanobody construct with tags, expressed in Pichia; also called 20CD019C07-35GS-T0170117G03-FLAG3-HIS6; CD20xCD3 (cluster A)
# Key:
# [1] = biological target: T1, human CD20; assay: cell-based or functional assay
# [2] = biological target: T1, human CD20; assay: flow cytometry on human CD20 positive Ramos cells
# [3] = biological target: T1, human CD20; assay: cell-based or functional assay; remark: listed apart in the source
# [4] = biological target: human HER2 (human, UniProt P04626 23-1255); assay: cell-based or functional assay
# [5] = biological target: T2, human TCR/CD3 complex on purified primary human T cells (human); assay: flow cytometry on primary human T cells
# T2 construct: Natural complex on T cells isolated from buffy coats of healthy donors; also called hu T cells; purified primary T cells
# [6] = biological target: T1, human CD20; assay: cell-based or functional assay; remark: listed apart in the source
# [7] = biological target: T1, human CD20; assay: cell-based or functional assay; remark: listed apart in the source
# [8] = biological target: T1, human CD20; assay: cell-based or functional assay; remark: listed apart in the source
# T2 sequence (delta, as listed by the source limits assumed, chain 1 of 4): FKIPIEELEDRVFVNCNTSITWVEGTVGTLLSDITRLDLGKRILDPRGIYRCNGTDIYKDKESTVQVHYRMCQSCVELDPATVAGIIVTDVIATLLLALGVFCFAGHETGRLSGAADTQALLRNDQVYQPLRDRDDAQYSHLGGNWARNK
# T2 sequence (gamma, as listed by the source limits assumed, chain 2 of 4): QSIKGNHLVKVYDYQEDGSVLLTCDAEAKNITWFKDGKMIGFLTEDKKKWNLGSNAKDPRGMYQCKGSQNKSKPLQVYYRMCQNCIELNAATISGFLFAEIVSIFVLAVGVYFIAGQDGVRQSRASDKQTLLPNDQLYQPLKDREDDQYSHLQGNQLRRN
# T2 sequence (epsilon, as listed by the source limits assumed, chain 3 of 4): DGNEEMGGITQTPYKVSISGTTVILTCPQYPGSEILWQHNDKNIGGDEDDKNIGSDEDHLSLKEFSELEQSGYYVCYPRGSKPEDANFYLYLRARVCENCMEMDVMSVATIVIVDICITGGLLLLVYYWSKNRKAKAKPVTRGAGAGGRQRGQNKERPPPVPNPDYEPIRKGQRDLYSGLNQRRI
# T2 sequence (zeta, as listed by the source limits assumed, chain 4 of 4): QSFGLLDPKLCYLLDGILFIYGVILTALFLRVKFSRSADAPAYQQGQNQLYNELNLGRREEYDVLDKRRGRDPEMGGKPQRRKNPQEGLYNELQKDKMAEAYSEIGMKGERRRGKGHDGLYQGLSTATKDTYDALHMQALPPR
Binder,"% lysis (% dead cells at 500 nM Nanobody minus no Nanobody control), Ramos killing assay, E:T 10:1 [1] [%]","Average IC50 (M), flow cytometry based primary human T cell mediated Ramos killing assay, E:T 10:1 [1] [M]",EC50 [2] [nM],"Average IC50 (M), xCELLigence based human T cell mediated CHO-K1 CD20 killing assay, E:T 30:1, 44 h [3] [M]",other results
B1,29,6.8e-09,32,4.89e-10,–
B2,13,2.9e-08,–,–,–
B3,3,1.4e-09,–,–,–
B4,–,–,–,–,"IC50 (M), xCELLigence based cytotoxicity (readout 18 h), MCF-7, E/T 15:1 [4]: 6.9e-11 M; IC50 (M), xCELLigence based cytotoxicity (readout 18 h), SKBR3, E/T 15:1 [4]: 9.5e-12 M"
B5,26,5.5e-09,21,1.04e-09,EC50 [5]: 35 nM
B6,–,–,–,–,"IC50 (M), xCELLigence based cytotoxicity (readout 18 h), MCF-7, E/T 15:1 [4]: 1.1e-10 M; IC50 (M), xCELLigence based cytotoxicity (readout 18 h), SKBR3, E/T 15:1 [4]: 2.6e-11 M"
B7,0,–,–,–,–
B8,–,–,4.7,1.52e-10,–
B9,4,9.2e-09,1.5,6.81e-12,–
B10,4,1.5e-08,–,–,–
B11,22,7e-09,1.8,2.81e-10,"EC50 (M) (title: IC50), T cell dependent B-cell (Ramos) killing assay [6]: 1.8e-09 M; EC50 (M) of IFN-γ secretion by human T cells (ELISA, 72 h) in the xCELLigence based CHO-K1 human CD20 killing assay [7]: 9.1e-10 M"
B12,22,3.9e-09,1.9,7.88e-10,"IC50 (M), flow cytometry based T cell mediated Ramos killing assay, E:T 1 [8]: 2.5e-08 M; IC50 (M), flow cytometry based T cell mediated Ramos killing assay, E:T 2 [8]: 7.1e-09 M; IC50 (M), flow cytometry based T cell mediated Ramos killing assay, E:T 5 [8]: 8.7e-09 M; IC50 (M), flow cytometry based T cell mediated Ramos killing assay, E:T 10 [8]: 7.3e-09 M; EC50 (M) (title: IC50), T cell dependent B-cell (Ramos) killing assay [6]: 6.4e-10 M; EC50 (M) of IFN-γ secretion by human T cells (ELISA, 72 h) in the xCELLigence based CHO-K1 human CD20 killing assay [7]: 6.2e-10 M; EC50 [5]: 89 nM"
